Data published in article PMC4990970.
pKd: −log10 of the molar value.

What was measured:
[1] = target: AtBAG5/Hsc70 complex (AtBAG5-long/Hsp70) (Arabidopsis thaliana | human) (UniProt O65373); assay: ITC; iTC200, room temperature, 20 mM Tris-HCl pH 7.5, 500 mM NaCl, 10 mM CaCl2 (holo-CaM, presence of calcium); 0.05-0.1 mM in the cell, 0.5-1.0 mM in the syringe
[2] = target: AtBAG5/Hsc70 complex (AtBAG5-long/Hsp70) (Arabidopsis thaliana | human) (UniProt O65373); assay: ITC; iTC200, room temperature, 20 mM Tris-HCl pH 7.5, 500 mM NaCl, 5 mM EGTA (apo-CaM, absence of calcium); 0.05-0.1 mM in the cell, 0.5-1.0 mM in the syringe

Calmodulin (CaM) (from UniProt P0DP23 1-149) (natural protein)
pKd [1]: 4.67 | pKd [2]: 6.41
